Data taken from patent publication US20210214461A1.
Substitutions are numbered along the chain they refer to.

Columns and labels:
[1] = molecular target: pre-existing anti-scFv903 antibodies in human serum H116 (human); assay: competition ADA bridging ELISA, 100 mcg/ml competitor
[2] = molecular target: pre-existing anti-scFv903 antibodies in human serum H63 (human); assay: as above
[3] = molecular target: pre-existing anti-scFv903 antibodies in human serum H15 (human); assay: as above
[4] = molecular target: pre-existing anti-scFv903 antibodies in human serum H96 (human); assay: as above
[5] = molecular target: pre-existing anti-scFv903 antibodies in human serum H69 (human); assay: as above
[6] = molecular target: pre-existing anti-scFv903 antibodies in human serum H21 (human); assay: as above
[7] = molecular target: pre-existing anti-scFv903 antibodies in human serum H50 (human); assay: as above
[8] = molecular target: pre-existing anti-scFv903 antibodies in human serum H135 (human); assay: as above
[9] = molecular target: pre-existing anti-scFv903 antibodies in human serum H14 (human); assay: as above
[10] = molecular target: pre-existing anti-scFv903 antibodies in human serum H8 (human); assay: as above
[11] = molecular target: pre-existing anti-scFv903 antibodies in human serum H54 (human); assay: as above
[12] = molecular target: pre-existing anti-scFv903 antibodies in human serum H105 (human); assay: as above
[13] = molecular target: pre-existing anti-scFv903 antibodies in human serum H46 (human); assay: as above
[14] = molecular target: pre-existing anti-scFv903 antibodies in human serum H19 (human); assay: as above
[15] = molecular target: pre-existing anti-scFv903 antibodies in human serum H86 (human); assay: as above
[16] = molecular target: pre-existing anti-scFv903 antibodies in human serum H49 (human); assay: as above
[17] = molecular target: pre-existing anti-scFv903 antibodies in human serum H56 (human); assay: as above
[18] = molecular target: pre-existing anti-scFv903 antibodies in human serum H66 (human); assay: as above
[19] = molecular target: pre-existing anti-scFv903 antibodies in human serum H40 (human); assay: as above
[20] = molecular target: pre-existing anti-scFv903 antibodies in human serum H79 (human); assay: as above
[21] = molecular target: pre-existing anti-scFv903 antibodies in human serum H53 (human); assay: as above
[22] = molecular target: pre-existing anti-scFv903 antibodies in human serum H20 (human); assay: as above
[23] = molecular target: pre-existing anti-scFv903 antibodies in human serum H81 (human); assay: as above
[24] = molecular target: pre-existing anti-scFv903 antibodies in human serum H59 (human); assay: as above
[25] = molecular target: pre-existing anti-scFv903 antibodies in human serum H125 (human); assay: as above
[26] = molecular target: pre-existing anti-scFv903 antibodies in human serum H26 (human); assay: as above
[27] = molecular target: pre-existing anti-scFv903 antibodies in human serum H80 (human); assay: as above
[28] = molecular target: pre-existing anti-scFv903 antibodies in human serum H115 (human); assay: as above
[29] = molecular target: pre-existing anti-scFv903 antibodies in human serum H76 (human); assay: as above
[30] = molecular target: pre-existing anti-scFv903 antibodies in human serum H60 (human); assay: as above
[31] = molecular target: pre-existing anti-scFv903 antibodies in human serum H55 (human); assay: as above
[32] = molecular target: pre-existing anti-scFv903 antibodies in human serum H29 (human); assay: as above
[33] = molecular target: pre-existing anti-scFv903 antibodies in human serum H3 (human); assay: as above
[34] = molecular target: pre-existing anti-scFv903 antibodies in human serum H21 (human); assay: competition ADA bridging ELISA
[35] = molecular target: pre-existing anti-scFv903 antibodies in human serum H50 (human); assay: competition ADA bridging ELISA
[36] = molecular target: pre-existing anti-scFv903 antibodies in human serum H49 (human); assay: competition ADA bridging ELISA
[37] = molecular target: pre-existing anti-scFv903 antibodies in human serum H56 (human); assay: competition ADA bridging ELISA
[38] = molecular target: pre-existing anti-scFv903 antibodies in human serum H53 (human); assay: competition ADA bridging ELISA
[39] = molecular target: pre-existing anti-scFv903 antibodies in human serum H80 (human); assay: competition ADA bridging ELISA
[40] = molecular target: pre-existing anti-scFv903 antibodies in human serum H64 (human); assay: competition ADA bridging ELISA
[41] = molecular target: pre-existing anti-scFv903 antibodies in human serum H3 (human); assay: competition ADA bridging ELISA
[42] = molecular target: pre-existing anti-scFv903 antibodies in human serum H64 (human); assay: competition ADA bridging ELISA, 100 mcg/ml competitor

B1: scFv 903 (scFv)
scFv: EIVMTQSPSTLSASVGDRVIITCQASEIIHSWLAWYQQKPGKAPKLLIYLASTLASGVPSRFSGSGSGAEFTLTISSLQPDDFATYYCQNVYLASTNGANFGQGTKLTVLGGGGGSGGGGSGGGGSGGGGSEVQLVESGGGLVQPGGSLRLSCTASGFSLTDYYYMTWVRQAPGKGLEWVGFIDPDDDPYYATWAKGRFTISRDTSKNTVYLQMNSLRAEDTAVYYCAGGDHNSGWGLDIWGQGTLVTVSS
[1]
  % reduction in OD: -97.8%
[2]
  % change in OD (signal change in competition ELISA): -96.8%
[3]
  % change in OD (signal change in competition ELISA): -91.1%
[4]
  % reduction in OD: -80.3%
[5]
  signal change in competition ELISA (% change in OD): -92.2%
[6]
  % signal change in competition ELISA: -85.4%
[7]
  signal change in competition ELISA (% change in OD): -88.7%
[8]
  % reduction in OD: -92.5%
[9]
  % change in OD signal: -96.6%
[10]
  % reduction in OD: -87.3%
[11]
  signal change in OD (%): -93.1%
[12]
  % reduction in OD: -97.2%
[13]
  % change in OD signal: -79.8%
[14]
  signal change in competition ELISA (% change in OD): -90.3%
[15]
  % reduction in OD: -86.2%
[16]
  % change in OD in competition ELISA: -82.7%
[17]
  % change in OD: -24.4%
[18]
  % change in OD: -97.2%
[19]
  % signal change in OD (negative = reduction): -95.4%
[20]
  % reduction in OD: -97.1%
[21]
  signal change in competition ELISA (%): -32.4%
[22]
  signal change in competition ELISA: -91.9%
[23]
  % reduction in OD: -94.7%
[24]
  signal change in competition ELISA (% change in OD): -97%
[25]
  % reduction in OD: -97.9%
[26]
  % change in OD (signal change): -92%
[27]
  % reduction in OD: -87%
[28]
  % reduction in OD: -94.7%
[29]
  % reduction in OD: -97%
[30]
  signal change in competition ELISA: -95.6%
[31]
  % signal change in OD (negative = reduction): -89.4%
[32]
  % change in OD signal: -79.4%
[33]
  % reduction in OD: -79.9%
[34]
  signal change in competition ELISA (% reduction in OD): -85%
[35]
  signal change in competition ELISA (% reduction in OD): -89%
[36]
  signal change in competition ELISA (% reduction in OD): -83%
[37]
  signal change in competition ELISA (% reduction in OD): -24%
[38]
  signal change in competition ELISA (% reduction in OD): -32%
[39]
  signal change in competition ELISA (% reduction in OD): -87%
[40]
  signal change in competition ELISA (% reduction in OD): -97%
[41]
  signal change in competition ELISA (% reduction in OD): -80%

B2: scFv 961 (scFv)
scFv: B1 scFv with L142S, V224T, L246T
[1]
  % reduction in OD: -33.2%
[2]
  % reduction in OD: -35.9%
[4]
  % reduction in OD: -78%
[5]
  % reduction in OD: -6.2%
[6]
  % reduction in OD: -80.5%
[7]
  % reduction in OD: -72.8%
[8]
  % reduction in OD: -74.7%
[10]
  % reduction in OD: -88.6%
[11]
  % reduction in OD: -69.4%
[12]
  % reduction in OD: 7.4%
[13]
  % reduction in OD: -40.1%
[14]
  % reduction in OD: -63.7%
[15]
  % reduction in OD: -67.9%
[16]
  % reduction in OD: -8.8%
[17]
  % reduction in OD: -23.8%
[19]
  % reduction in OD: -1.7%
[20]
  % reduction in OD: -74.1%
[21]
  % reduction in OD: -30.9%
[22]
  % reduction in OD: -23.5%
[23]
  % reduction in OD: -8.8%
[24]
  % reduction in OD: -67.3%
[25]
  % reduction in OD: 2.7%
[26]
  % reduction in OD: 0.1%
[27]
  % reduction in OD: -55.1%
[28]
  % reduction in OD: -31.4%
[42]
  % reduction in OD: -13.7%
[29]
  % reduction in OD: -36.4%
[30]
  % reduction in OD: -1.2%
[31]
  % reduction in OD: -14.7%
[32]
  % reduction in OD: -21.9%
[33]
  % reduction in OD: -1.7%
[34]
  signal change in competition ELISA (% reduction in OD): -81%
[35]
  signal change in competition ELISA (% reduction in OD): -73%
[36]
  signal change in competition ELISA (% reduction in OD): -9%
[37]
  signal change in competition ELISA (% reduction in OD): -24%
[38]
  signal change in competition ELISA (% reduction in OD): -31%
[39]
  signal change in competition ELISA (% reduction in OD): -55%
[40]
  signal change in competition ELISA (% reduction in OD): -14%
[41]
  signal change in competition ELISA (% reduction in OD): -2%

B3: scFv105 (scFv)
scFv: DIVMTQSPSSLSASVGDRVTLTCTASQSVSNDVVWYQQRPGKAPKLLIYSAFNRYTGVPSRFSGRGYGTDFTLTISSLQPEDVAVYYCQQDYNSPRTFGQGTKLEVKRGGGGSGGGGSGGGGSSGGGSQVQLVQSGAEVKKPGASVKVSCTASGYTFTHYGMNWVRQAPGKGLEWMGWINTYTGEPTYADKFKDRFTFSLETSASTVYMELTSLTSDDTAVYYCARERGDAMDYWGQGTLVTVSS
[1]
  % reduction in OD: -43.4%
[2]
  % reduction in OD: -80.5%
[3]
  % reduction in OD: -69.5%
[4]
  % reduction in OD: -29%
[5]
  % reduction in OD: -87.6%
[6]
  % reduction in OD: -3.4%
[7]
  % reduction in OD: -31.1%
[8]
  % reduction in OD: -23.1%
[9]
  % reduction in OD: -3.6%
[10]
  % reduction in OD: -23.1%
[11]
  % reduction in OD: -61.3%
[12]
  % reduction in OD: 2.4%
[13]
  % reduction in OD: -66.7%
[14]
  % reduction in OD: -73.5%
[16]
  % reduction in OD: -26.1%
[17]
  % reduction in OD: -4.8%
[18]
  % reduction in OD: -2.6%
[19]
  % reduction in OD: 3.5%
[20]
  % reduction in OD: -40.5%
[21]
  % reduction in OD: -18.4%
[22]
  % reduction in OD: -18.8%
[23]
  % reduction in OD: -18.1%
[24]
  % reduction in OD: -93.7%
[25]
  % reduction in OD: -55.5%
[26]
  % reduction in OD: -79.9%
[27]
  % reduction in OD: -50.9%
[28]
  % reduction in OD: -60.4%
[42]
  % reduction in OD: -55.5%
[29]
  % reduction in OD: -65.7%
[30]
  % reduction in OD: -10.8%
[31]
  % reduction in OD: -71.9%
[32]
  % reduction in OD: -51.4%
[33]
  % reduction in OD: -58.8%
[34]
  signal change in competition ELISA (% reduction in OD): -3%
[35]
  signal change in competition ELISA (% reduction in OD): -31%
[36]
  signal change in competition ELISA (% reduction in OD): -26%
[37]
  signal change in competition ELISA (% reduction in OD): -5%
[38]
  signal change in competition ELISA (% reduction in OD): -18%
[39]
  signal change in competition ELISA (% reduction in OD): -51%
[40]
  signal change in competition ELISA (% reduction in OD): -55%
[41]
  signal change in competition ELISA (% reduction in OD): -59%
